According to the supplement of paper PMC11780869:

Tested on: Bacillus subtilis
Test: cleaved RNA product abundance (RNA/gDNA barcode ratio) relative to median wild-type variant (ratio to wild type); higher = more accumulation of the downstream cleavage product
Method in brief: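 The B. subtilis chromosome carried reporter mRNAs, truncated aprE or tetM, containing barcoded RNase Y cleavage-site windows mutagenized using oligos with a 9% error rate. After growth in LB at 37°C from OD600 0.0003 to 0.3, cleaved RNA was gel-selected, reverse transcribed and barcode-sequenced next to genomic DNA barcodes, with UMI collapsing. Each construct's RNA:gDNA barcode ratio was scaled to the median construct with the unmutated site. That scaled ratio is reported as cleaved product abundance.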

[1] = experiment (reporter, strain, medium): exp 8a: truncated aprE reporter, strain BJT201 with 2% xylose (RNase J1 expressed), cleavage site: glnRA (positions -5 to +31 mutated)
[2] = experiment (reporter, strain, medium): exp 4a: truncated aprE reporter, strain BJT201 with 2% xylose (RNase J1 expressed), cleavage site: cggR-gapA (positions -7 to +36 mutated)
[3] = experiment (reporter, strain, medium): exp 2b: truncated aprE reporter, strain BJT200, cleavage site: cggR-gapA (positions -7 to +36 mutated)

Row | Sequence | cleaved RNA product abundance [1] | cleaved RNA product abundance [2] | further results
1 | CGACATGTCCCGCTTCTTTCATTAATCCGTTAGCTACTGTTTTGCTATATATATTTACCTTTTAAGAGGAGGAAT | 0.617 | – | –
2 | ACAGACGAAGGAGCCGCAAAGCAGTTATTAAGGGATGAATAATCCCTCAACATAAATATCTCTCACTTATTTAAA | – | 0.118 | –
3 | CGACATGTCCCGCTTCTTTCATTAATCCCTTAGCAACTGTTTTGCTAGATACATTTACCTTTTAAGAGGAGGAAT | 0.127 | – | –
4 | ACAGACGAAGGAGCCGCAACGAAGTTATTAAGGGATGAATAATCCCTCAACATAAATATCTCTCACTTATTTAAA | – | 0.447 | –
5 | ACAGACGAAGGAGCCGCAAAGAAGTAATTAACGGATGAATAATCCCTGAATATAAATATCTCTCACTTATTTAAA | – | 0.16 | –
6 | ACAGACGAAGGAGCCGCAAAGAAGTTATTAAGGGATGAATAATCCCCAAATATAAATATCTCTCACTTATTTAAA | – | – | cleaved RNA product abundance [3]: 0.336
7 | ACAGACGAAGGAGCCGCAAAGAAGTTATTAAGGGATTAATATTCCCTCAATATAAATATCTCTCACTTATTTAAA | – | 1.13 | –
8 | ACAGACGAAGGAGCCGCAAAGAAGTTATTAAGGGATGATTAATCCCTTAATATAAATATCTCTCACTTATTTAAA | – | 0.554 | –
9 | ACAGACGAAGGAGCCGCAAAGAAGTTATTAAGGGTTGAATAATCCCTCAACATAAATATCTCTCACTTATTTAAA | – | 0.237 | –
10 | CGACATGTCCCGCTTCTTTCATTAATTCGTTAGCAACTATTTTGCTATATACATTTACCTTTTAAGAGGAGGAAT | 1.64 | – | –
11 | CGACATGTCCCGCTTCTTTCATTAATCCGTTACCAACTGTTTTGCTATATACATTAACCTTTTAAGAGGAGGAAT | 0.238 | – | –
12 | CGACATGTCCCGCTTCTTTCATTAATCCGTTTGCAACTGTTTTTCTATATACATTTACCTTTTAAGAGGAGGAAT | 0.768 | – | –
13 | ACAGACGAAGGAGCCGCGAAGAAGTTATTAAGGGATTAATAATCCCTCAATATAAATATCTCTCACTTATTTAAA | – | 1.19 | –
14 | ACAGACGAAGGAGCCGCAAAGAAGTTATTAAGGGATGAATAATCCCTATATATAAATATCTCTCACTTATTTAAA | – | 0.37 | –
15 | ACAGACGAAGGAGCCGCAAAGAAGTTATTAAGGGATGTATAATCCCTCCATATAAATATCTCTCACTTATTTAAA | – | – | cleaved RNA product abundance [3]: 0.162
16 | ACAGACGAAGGAGCCGCAAACAAGTTATTAAGGGATGAATAATCACTCAATATAAATATCTCTCACTTATTTAAA | – | 0.127 | –
17 | CGACATGTCCCGCTTCTTTCATTAATCCGTTAGCAAGTGTTTTTCTATATACATTTACCTTTTAAGAGGAGGAAT | 0.603 | – | –
18 | CGACATGTCCCGCTTCTTTCATTAATCCGTAAGCAACTGTTTTGCTATATACATTTACCATTTAAGAGGAGGAAT | 0.381 | – | –
19 | ACAGACGAAGGAGCCGCAAAGAAGTAATTAAGGGATGAATCATCCCTCAATATAAATATCTCTCACTTATTTAAA | – | 0.314 | –

Row | Sequence | cleaved RNA product abundance [1] | cleaved RNA product abundance [2] | further results
20 | CGACATGTCCCGCTTCTTTCATTAATCCGTTAGCAACTGTTTTGCTTTATACATTTACCCTTTAAGAGGAGGAAT | 0.206 | – | –
21 | ACAGACGAAGGAGCCGCAATGAAGTTATTAAGGGCTGAATAATCCCTCAATATAAATATCTCTCACTTATTTAAA | – | 0.472 | cleaved RNA product abundance [3]: 0.583
22 | ACAGACGAAGGAGCCGCCAAGAAGTTATTAAGGGATGAATAATCACTCAATATAAATATCTCTCACTTATTTAAA | – | 0.102 | –
23 | ACAGACGAAGGAGCCGCAAAGAATTTATTAAGGGATGAATAAGCCCTCAATATAAATATCTCTCACTTATTTAAA | – | 0.573 | cleaved RNA product abundance [3]: 0.502
24 | CGACATGTCCCGCTTCTTTCATTAATCCGTTAGCAACTGTTGTCCTATATACATTTACCTTTTAAGAGGAGGAAT | 0.343 | – | –
25 | CGACATGTCCCGCTTCTTTCATTAAACCGTTATCAACTGTTTTGCTATATACATTTACCTTTTAAGAGGAGGAAT | 0.218 | – | –
26 | ACAGACGAAGGAGCCGCAAAGAAGGTATTAAGGGATGAATAATCGCTCAATATAAATATCTCTCACTTATTTAAA | – | – | cleaved RNA product abundance [3]: 0.176
27 | ACAGACGAAGGAGCCGCAAAGAATTTATTAAGGGCTGAATAATCCCTCAATATAAATATCTCTCACTTATTTAAA | – | 0.402 | –
28 | ACAGACGAAGGAGCCGCAAAGAAGTTATTAAGGGATGAGAAATCCCTCAATATAAATATCTCTCACTTATTTAAA | – | 0.604 | –
29 | CGACATGTCCCGCTTCTTTCATTAATCCGTTTGCAACTGTTTTGCTATACACATTTACCTTTTAAGAGGAGGAAT | 0.386 | – | –
30 | CGACATGTCCCGCTTCTTTCATTACTCCGTTAGCAACTGTTTTGCTATATACATTAACCTTTTAAGAGGAGGAAT | 1.36 | – | –
31 | CGACATGTCCCGCTTCTTTCATTAATCCCTTAGCAACTGTTTAGCTATATACATTTACCTTTTAAGAGGAGGAAT | 0.236 | – | –
32 | ACAGACGAAGGAGCCGCATAGAAGTTATTAAGGGATGAATAATCCCTCAACATAAATATCTCTCACTTATTTAAA | – | 0.317 | –
33 | CGACATGTCCCGCTTCTTTCATTAATCCGTTACCAACTGTTTTGCTATATCCATTTACCTTTTAAGAGGAGGAAT | 0.206 | – | –
34 | ACAGACGAAGGAGCCGCACAGAAGTTATTAAGGGATGAATAATCCTTCAATATAAATATCTCTCACTTATTTAAA | – | 0.469 | cleaved RNA product abundance [3]: 0.461
35 | ACAGACGAAGGAGCCGCAAAGAAGTTATTAAGCGATGAATAATCCCTCATAATAAATATCTCTCACTTATTTAAA | – | – | cleaved RNA product abundance [3]: 0.165
36 | ACAGACGAAGGAGCCGCAAAAAAGTTATTAAGGGATGAATAATACCTCAATATAAATATCTCTCACTTATTTAAA | – | 0.17 | cleaved RNA product abundance [3]: 0.139
37 | ACAGACGAAGGAGCCGCAAAGAAGTTATTAAGAGATAAATAATTCCTCAATATAAATATCTCTCACTTATTTAAA | – | – | cleaved RNA product abundance [3]: 0.102
38 | ACAGACGAAGGAGCCGCAAAGAAGTTATTAAGGGATGAATAATCCCGTAATATAAATATCTCTCACTTATTTAAA | – | 0.682 | –

Row | Sequence | cleaved RNA product abundance [1] | cleaved RNA product abundance [2] | further results
39 | CGACATGTCCCGCTTCTTTCATTAATCCGTTAACAACTGATTTGCTATATACATTTACCTTTTAAGAGGAGGAAT | 0.248 | – | –
40 | ACAGACGAAGGAGCCGCAAAGACGTTATTAAGGGATGATTAATCCCTCAATATAAATATCTCTCACTTATTTAAA | – | 0.779 | –
41 | CGACATGTCCCGCTTCTTTCATTAATCCGTTAGCAACTGATTTGCTAAATACATTTACCTTTTAAGAGGAGGAAT | 0.217 | – | –
42 | ACAGACGAAGGAGCCGCAAAGAAGTTATTAAGGGATGACTAATCCCTCAATATAAATATCTCTCACTTATTTAAA | – | 0.679 | cleaved RNA product abundance [3]: 0.603; cleaved RNA product abundance (experiment (reporter, strain, medium): exp 6: tetM reporter, strain 168, cleavage site: cggR-gapA (positions -7 to +36 mutated)): 0.978
43 | ACAGACGAAGGAGCCGCAAAGAAGTTATTAAGGGATGAATAAGCCCTAAATATAAATATCTCTCACTTATTTAAA | – | 0.528 | cleaved RNA product abundance [3]: 0.342
44 | ACAGACGAAGGAGCCGCAAATAAGTTATTAAGGGATGAATAATCCCTCAATATAAACATCTCTCACTTATTTAAA | – | 0.822 | cleaved RNA product abundance [3]: 0.822
45 | ACAGACGAAGGAGCCGCAAAGAAATTATTAAAAGATGAATAATCCCTCAATATAAATATCTCTCACTTATTTAAA | – | 0.083 | –
46 | ACAGACGAAGGAGCCGCAAAGAAGTTATTAAGGTATGCATAATCCCTCAATATAAATATCTCTCACTTATTTAAA | – | 0.126 | –
47 | ACAGACGAAGGAGCCGCAAAGACGTTATTAAGGGATGAATAAACCCTCAATATAAATATCTCTCACTTATTTAAA | – | 0.312 | –
48 | ACAGACGAAGGAGCCGCAAAGAAATTATTAAGGGATGAATAATCCCTCAATATAAATTTCTCTCACTTATTTAAA | – | 0.361 | –
49 | ACAGACGAAGGAGCCGCAAAGCAGTTATTAAGGGATGAATATTCCCTCAATATAAATATCTCTCACTTATTTAAA | – | 0.898 | cleaved RNA product abundance [3]: 0.832
50 | ACAGACGAAGGAGCCGCAAAGAAGTTATTAAGGGATGATTAAACCCTCAATATAAATATCTCTCACTTATTTAAA | – | 0.362 | –
51 | CGACATGTCCCGCTTCTTTCATTATTCCGTTAGCAACTGTTTTGCTATATACATTTACTTTTTAAGAGGAGGAAT | 1.96 | – | –
52 | CGACATGTCCCGCTTCTTTCATTAATCCGTTAACAACTGTTTTGCTATATACATTTACCTTTTAAGAGGAGGAAT | 0.217 | – | –
53 | ACAGACGAAGGAGCCGCAAAGAAGTTATTAAGGAATGAATAATCCCCCAATATAAATATCTCTCACTTATTTAAA | – | 0.115 | cleaved RNA product abundance [3]: 0.122
54 | CGACATGTCCCGCTTCTTTCATTAATCCGTTGCCAACTGTTTTGCTATATACATTTACCTTTTAAGAGGAGGAAT | 0.264 | – | –
55 | ACAGACGAAGGAGCCGCAAAGTAGTTATTAAGGGAGGAATAATCCCTCAATATAAATATCTCTCACTTATTTAAA | – | 0.557 | –
56 | ACAGACGAAGGAGCCGCAAAGAAGTTATTAAGGGATTGATAATCCCTCAATATAAATATCTCTCACTTATTTAAA | – | 0.889 | –
